From US20200046811

Target: T1, Recombinant Human FGF23 (Fibroblast Growth Factor 23), Q9GZV9
T1 chain: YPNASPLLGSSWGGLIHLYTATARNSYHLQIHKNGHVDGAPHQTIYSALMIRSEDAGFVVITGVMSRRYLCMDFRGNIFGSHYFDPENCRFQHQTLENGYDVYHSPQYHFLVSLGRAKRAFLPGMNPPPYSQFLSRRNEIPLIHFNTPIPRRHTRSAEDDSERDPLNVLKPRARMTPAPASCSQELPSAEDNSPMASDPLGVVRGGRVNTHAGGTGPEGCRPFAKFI

B1: Recombinant human t-PA (tissue plasminogen activator) (protein)
chain: SYQVICRDEKTQMIYQQHQSWLRPVLRSNRVEYCWCNSGRAQCHSVPVKSCSEPRCFNGGTCQQALYFSDFVCQCPEGFAGKCCEIDTRATCYEDQGISYRGTWSTAESGAECTNWNSSALAQKPYSGRRPDAIRLGLGNHNYCRNPDRDSKPWCYVFKAGKYSSEFCSTPACSEGNSDCYFGNGSAYRGTHSLTESGASCLPWNSMILIGKVYTAQNPSAQALGLGKHNYCRNPDGDAKPWCHVLKNRRLTWEYCDVPSCSTCGLRQYSQPQFRIKGGLFADIASHPWQAAIFAKHRRSPGERFLCGGILISSCWILSAAHCFQERFPPHHLTVILGRTYRVVPGEEEQKFEVEKYIVHKEFDDDTYDNDIALLQLKSDSSRCAQESSVVRTVCLPPADLQLPDWTECELSGYGKHEALSPFYSERLKEAHVRLYPSSRCTSQHLLNRTVTDNMLCAGDTRSGGPQANLHDACQGDSGGPLVCLNDGRMTLVGIISWGLGCGQKDVPGVYTKVTNYLDWIRDNMRP
in vitro proteolysis of FGF23, silver stained SDS-PAGE gel: smaller fragments are generated on a silver stained SDS-PAGE gel indicating proteolytic cleavage
